According to publication PMC3107930:

Target: motavizumab Fab
Test: SPR

“RSV F peptide (motavizumab epitope peptide)” showed a Kd of 241 nM.
